The data set is described as follows: protein stability index of a GFP-peptide fusion (GPS, HEK-293T) (PSI 1-6); higher = more stable. To be noted: c terminus: native.

The source of these data is the supplement of paper PMC10567573.
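Note: lentivirally expressed fusion library, cells FACS-sorted into six equal-sized GFP/DsRed ratio bins, PSI computed from sequencing read fractions per bin weighted by bin number.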

B1: PSMB5 addI (peptide)
chain: DGWIRVSSDNVADLHEKYSGSTPI
Take B1: the protein stability index (parent: NP_002788.1) amounted to 4.5.

B2: POLD2 addI (peptide)
chain: CQPISFSGFGAEDDDLGGLGLGPI
Regarding B2, the protein stability index (parent: NP_006221.1) is 2.66.

B3: TRPA1 addI (peptide)
chain: EQRNSRWNTVLRAVKAKTHHLEPI
For B3, the protein stability index (parent: NP_015628.1) was determined as 4.42.

B4: SNF8 addI (peptide)
chain: LPALFTDLYSQEITAEEAREALPI
B4: the protein stability index (parent: NP_009172.2) is 3.3.
